Results from US20140274782A1, “AFFINITY REAGENTS AND METHODS FOR DETECTION, PURIFICATION, AND PROTEOMIC ANALYSIS OF METHYLATED PROTEINS” (The Board of Trustees of the Leland Stanford Junior …, priority 2013, published 2014).

T1: G9a and GLP (Homo sapiens, UniProt Q96KQ7+Q9H9B1)
T1 sequence (Q96KQ7 2-1210 limits assumed): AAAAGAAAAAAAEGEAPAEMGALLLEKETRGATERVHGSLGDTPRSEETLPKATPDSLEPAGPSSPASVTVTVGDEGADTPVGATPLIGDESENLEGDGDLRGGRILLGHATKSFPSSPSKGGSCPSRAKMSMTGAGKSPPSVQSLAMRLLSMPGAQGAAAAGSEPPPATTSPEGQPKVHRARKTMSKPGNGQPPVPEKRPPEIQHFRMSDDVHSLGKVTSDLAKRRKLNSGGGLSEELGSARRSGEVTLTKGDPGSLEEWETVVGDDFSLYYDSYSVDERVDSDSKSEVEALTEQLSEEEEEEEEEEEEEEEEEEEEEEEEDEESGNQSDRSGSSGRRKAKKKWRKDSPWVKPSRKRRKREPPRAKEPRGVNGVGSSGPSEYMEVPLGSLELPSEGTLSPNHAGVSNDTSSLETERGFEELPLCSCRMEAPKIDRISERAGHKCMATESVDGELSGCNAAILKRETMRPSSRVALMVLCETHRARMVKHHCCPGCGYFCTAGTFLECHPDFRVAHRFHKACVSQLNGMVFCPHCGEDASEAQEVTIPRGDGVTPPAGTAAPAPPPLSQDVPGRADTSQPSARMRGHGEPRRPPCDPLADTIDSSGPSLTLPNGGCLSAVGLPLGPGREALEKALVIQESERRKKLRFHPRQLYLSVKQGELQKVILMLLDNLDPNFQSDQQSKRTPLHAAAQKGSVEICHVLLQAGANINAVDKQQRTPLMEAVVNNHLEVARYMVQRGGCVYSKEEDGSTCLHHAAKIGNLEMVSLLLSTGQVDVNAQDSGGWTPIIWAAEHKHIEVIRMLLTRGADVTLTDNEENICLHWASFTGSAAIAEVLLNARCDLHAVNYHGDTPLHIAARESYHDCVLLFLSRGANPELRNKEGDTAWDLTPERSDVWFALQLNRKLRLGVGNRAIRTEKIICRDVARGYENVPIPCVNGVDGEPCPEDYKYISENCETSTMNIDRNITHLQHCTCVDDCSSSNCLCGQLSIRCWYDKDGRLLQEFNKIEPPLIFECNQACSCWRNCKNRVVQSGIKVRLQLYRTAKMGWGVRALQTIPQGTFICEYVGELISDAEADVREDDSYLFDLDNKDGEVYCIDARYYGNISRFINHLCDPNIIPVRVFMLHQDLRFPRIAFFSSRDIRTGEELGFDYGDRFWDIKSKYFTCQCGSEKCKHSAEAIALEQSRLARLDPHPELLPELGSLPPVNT
T1 sequence (Q9H9B1 2-1298 limits assumed): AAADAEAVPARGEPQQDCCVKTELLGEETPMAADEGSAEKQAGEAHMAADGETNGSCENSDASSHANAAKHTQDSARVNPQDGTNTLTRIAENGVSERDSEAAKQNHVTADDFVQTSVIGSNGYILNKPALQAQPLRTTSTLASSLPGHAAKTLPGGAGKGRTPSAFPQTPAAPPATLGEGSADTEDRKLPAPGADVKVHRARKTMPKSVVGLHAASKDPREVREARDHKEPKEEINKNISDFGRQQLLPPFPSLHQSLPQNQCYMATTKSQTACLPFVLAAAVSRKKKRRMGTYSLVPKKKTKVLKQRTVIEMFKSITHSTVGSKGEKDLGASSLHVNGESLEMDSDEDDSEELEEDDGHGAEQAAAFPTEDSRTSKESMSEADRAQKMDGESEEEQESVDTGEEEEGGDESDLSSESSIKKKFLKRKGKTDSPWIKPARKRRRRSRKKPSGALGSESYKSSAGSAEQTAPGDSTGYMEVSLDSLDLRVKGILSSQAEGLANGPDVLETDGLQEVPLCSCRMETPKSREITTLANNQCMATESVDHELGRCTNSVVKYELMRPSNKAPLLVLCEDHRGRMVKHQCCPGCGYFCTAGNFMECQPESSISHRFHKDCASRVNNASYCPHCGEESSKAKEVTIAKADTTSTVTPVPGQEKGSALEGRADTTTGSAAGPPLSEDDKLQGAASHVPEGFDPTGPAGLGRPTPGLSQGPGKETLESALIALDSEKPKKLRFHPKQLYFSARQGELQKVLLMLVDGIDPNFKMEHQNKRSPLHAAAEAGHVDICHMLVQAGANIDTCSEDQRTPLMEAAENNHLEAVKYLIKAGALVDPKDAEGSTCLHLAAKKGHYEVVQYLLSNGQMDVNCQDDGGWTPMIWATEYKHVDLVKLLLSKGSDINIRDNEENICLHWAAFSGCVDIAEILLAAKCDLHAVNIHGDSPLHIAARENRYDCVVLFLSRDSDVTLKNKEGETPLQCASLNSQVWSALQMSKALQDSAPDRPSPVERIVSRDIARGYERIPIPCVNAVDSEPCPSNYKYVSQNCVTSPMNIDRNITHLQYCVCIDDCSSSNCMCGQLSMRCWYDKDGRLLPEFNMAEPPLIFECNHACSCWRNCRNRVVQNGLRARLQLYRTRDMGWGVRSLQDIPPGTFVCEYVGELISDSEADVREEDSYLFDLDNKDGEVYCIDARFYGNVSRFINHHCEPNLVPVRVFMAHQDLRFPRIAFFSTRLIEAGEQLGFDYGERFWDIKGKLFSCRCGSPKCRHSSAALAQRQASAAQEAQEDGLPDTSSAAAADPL

B1: DUT (protein, UniProt P33316 70-252, looked up)
Deoxyuridine 5'-triphosphate …: ASTVGAAGWKGELPKAGGSPAPGPETPAISPSKRARPAEVGGMQLRFARLSEHATAPTRGSARAAGYDLYSAYDYTIPPMEKAVVKTDIQIALPSGCYGRVAPRSGLAAKHFIDVGAGVIDEDYRGNVGVVLFNFGKEKFEVKKGDRIAQLICERIFYPEIEEVQALDDTERGSGGFGSTGKN
B2: DBR1 (protein, UniProt Q9UK59 1-544, looked up)
Lariat debranching enzyme: MRVAVAGCCHGELDKIYETLALAERRGPGPVDLLLCCGDFQAVRNEADLRCMAVPPKYRHMQTFYRYYSGEKKAPVLTLFIGGNHEASNHLQELPYGGWVAPNIYYLGLAGVVKYRGVRIGGISGIFKSHDYRKGHFECPPYNSSTIRSIYHVRNIEVYKLKQLKQPIDIFLSHDWPRSIYHYGNKKQLLKTKSFFRQEVENNTLGSPAASELLEHLKPTYWFSAHLHVKFAALMQHQAKDKGQTARATKFLALDKCLPHRDFLQILEIEHDPSAPDYLEYDIEWLTILRATDDLINVTGRLWNMPENNGLHARWDYSATEEGMKEVLEKLNHDLKVPCNFSVTAACYDPSKPQTQMQLIHRINPQTTEFCAQLGIIDINVRLQKSKEEHHVCGEYEEQDDVESNDSGEDQSEYNTDTSALSSINPDEIMLDEEEDEDSIVSAHSGMNTPSVEPSDQASEFSASFSDVRILPGSMIVSSDDTVDSTIDREGKPGGTVESGNGEDLTKVPLKRLSDEHEPEQRKKIKRRNQAIYAAVDDDDDDAA
B3: CLASP2 (protein, UniProt O75122 1-1294, looked up)
CLIP-associating protein 2: MAMGDDKSFDDEESVDGNRPSSAASAFKVPAPKTSGNPANSARKPGSAGGPKVGGASKEGGAGAVDEDDFIKAFTDVPSIQIYSSRELEETLNKIREILSDDKHDWDQRANALKKIRSLLVAGAAQYDCFFQHLRLLDGALKLSAKDLRSQVVREACITVAHLSTVLGNKFDHGAEAIVPTLFNLVPNSAKVMATSGCAAIRFIIRHTHVPRLIPLITSNCTSKSVPVRRRSFEFLDLLLQEWQTHSLERHAAVLVETIKKGIHDADAEARVEARKTYMGLRNHFPGEAETLYNSLEPSYQKSLQTYLKSSGSVASLPQSDRSSSSSQESLNRPFSSKWSTANPSTVAGRVSAGSSKASSLPGSLQRSRSDIDVNAAAGAKAHHAAGQSVRSGRLGAGALNAGSYASLEDTSDKLDGTASEDGRVRAKLSAPLAGMGNAKADSRGRSRTKMVSQSQPGSRSGSPGRVLTTTALSTVSSGVQRVLVNSASAQKRSKIPRSQGCSREASPSRLSVARSSRIPRPSVSQGCSREASRESSRDTSPVRSFQPLASRHHSRSTGALYAPEVYGASGPGYGISQSSRLSSSVSAMRVLNTGSDVEEAVADALKKPARRRYESYGMHSDDDANSDASSACSERSYSSRNGSIPTYMRQTEDVAEVLNRCASSNWSERKEGLLGLQNLLKNQRTLSRVELKRLCEIFTRMFADPHGKRVFSMFLETLVDFIQVHKDDLQDWLFVLLTQLLKKMGADLLGSVQAKVQKALDVTRESFPNDLQFNILMRFTVDQTQTPSLKVKVAILKYIETLAKQMDPGDFINSSETRLAVSRVITWTTEPKSSDVRKAAQSVLISLFELNTPEFTMLLGALPKTFQDGATKLLHNHLRNTGNGTQSSMGSPLTRPTPRSPANWSSPLTSPTNTSQNTLSPSAFDYDTENMNSEDIYSSLRGVTEAIQNFSFRSQEDMNEPLKRDSKKDDGDSMCGGPGMSDPRAGGDATDSSQTALDNKASLLHSMPTHSSPRSRDYNPYNYSDSISPFNKSALKEAMFDDDADQFPDDLSLDHSDLVAELLKELSNHNERVEERKIALYELMKLTQEESFSVWDEHFKTILLLLLETLGDKEPTIRALALKVLREILRHQPARFKNYAELTVMKTLEAHKDPHKEVVRSAEEAASVLATSISPEQCIKVLCPIIQTADYPINLAAIKMQTKVIERVSKETLNLLLPEIMPGLIQGYDNSESSVRKACVFCLVAVHAVIGDELKPHLSQLTGSKMKLLNLYIKRAQTGSGGADPTTDVSGQS
B4: DNAJC2 (protein, UniProt Q99543 1-621, looked up)
DnaJ homolog subfamily C …: MLLLPSAADGRGTAITHALTSASTLCQVEPVGRWFEAFVKRRNRNASASFQELEDKKELSEESEDEELQLEEFPMLKTLDPKDWKNQDHYAVLGLGHVRYKATQRQIKAAHKAMVLKHHPDKRKAAGEPIKEGDNDYFTCITKAYEMLSDPVKRRAFNSVDPTFDNSVPSKSEAKDNFFEVFTPVFERNSRWSNKKNVPKLGDMNSSFEDVDIFYSFWYNFDSWREFSYLDEEEKEKAECRDERRWIEKQNRATRAQRKKEEMNRIRTLVDNAYSCDPRIKKFKEEEKAKKEAEKKAKAEAKRKEQEAKEKQRQAELEAARLAKEKEEEEVRQQALLAKKEKDIQKKAIKKERQKLRNSCKTWNHFSDNEAERVKMMEEVEKLCDRLELASLQCLNETLTSCTKEVGKAALEKQIEEINEQIRKEKEEAEARMRQASKNTEKSTGGGGNGSKNWSEDDLQLLIKAVNLFPAGTNSRWEVIANYMNIHSSSGVKRTAKDVIGKAKSLQKLDPHQKDDINKKAFDKFKKEHGVVPQADNATPSERFEGPYTDFTPWTTEEQKLLEQALKTYPVNTPERWEKIAEAVPGRTKKDCMKRYKELVEMVKAKKAAQEQVLNASRAKK

Tests used:
G9a and GLP = biological target: T1, G9a and GLP; assay: Triple SILAC pull-down after UNC0638 treatment of 293T cells, DMSO/UNC0638 ratio of protein captured by 3×MBT; type: cell-based; design: endogenous in cells; host or cells: HEK 293T; conditions: for Relative to UNC0638 UNC Heavy / Relative to UNC0638 UNC Light: SILAC ratio DMSO/UNC0638 of protein pulled down with 3xMBT; for Relative to UNC0638 UNC Heavy: UNC0638 in heavy SILAC media; for Relative to UNC0638 UNC Light: UNC0638 in light SILAC media; for Relative to UNC0638 Average: average of UNC Light and UNC Heavy experiments;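 for all read-outs here: mass spectrometry (Q-Exactive) SILAC quantitation, DMSO/UNC0638 ratio computed after subtracting 3×MBTD355N mutant pull-down background, only proteins with at least twofold 3×MBT over mutant signal considered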
3×MBT domain of L3MBTL1 = assay: Triple SILAC pull-down, 3xMBT/3xMBTD355N ratio (cytoplasmic, nuclear and chromatin fractions of 293T cells); type: binding, human; conditions: SILAC ratio, pull-down 3xMBT vs 3xMBTD355N; for 3xMBT/D355N UNC Heavy: experiment with UNC0638 in heavy SILAC media; for 3xMBT/D355N UNC Light: experiment with UNC0638 in light SILAC media;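 for all read-outs here: proteins quantified with MaxQuant, requiring at least two unique peptides and quantification in both label directions, normalized to the mean of proteins from a digested loading control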

Row | Molecule | Relative to UNC0638 UNC Heavy (G9a and GLP) | Relative to UNC0638 UNC Light (G9a and GLP) | Relative to UNC0638 Average (G9a and GLP) | 3xMBT/D355N UNC Heavy (3×MBT domain of L3MBTL1) | 3xMBT/D355N UNC Light (3×MBT domain of L3MBTL1)
1 | B1 | 0.62 log base 2 | 0.04 log base 2 | 0.33 log base 2 | 1.63 log base 2 | 2.37 log base 2
2 | B2 | 0.54 log base 2 | 0.13 log base 2 | 0.33 log base 2 | 3.11 log base 2 | 2.56 log base 2
3 | B3 | 0.45 log base 2 | 0.19 log base 2 | 0.32 log base 2 | 2.43 log base 2 | 2.10 log base 2
4 | B4 | 0.28 log base 2 | 0.33 log base 2 | 0.30 log base 2 | 2.18 log base 2 | 3.04 log base 2
